Legend:
SgrAI S56E = target: T1, SgrAI S56E (UniProt Q9F6L0 1-339, S56E); assay: EMSA; 10 mM Ca2+; 20 mM Tris-HOAc pH 8.0 (RT), 50 mM KOAc, 10 mM Ca(OAc)2 (or Mg(OAc)2), 1 mM DTT, 4 C for anisotropy and gel run; 10% glycerol for EMSA and R131A/R134A, none for wild type with 40-mers; conditions: protein: recombinant; chain copies: 2; label: 5' 32P (S56E, A57E) or 5' fluorescein on top strand (R131A, R134A)
T1 sequence: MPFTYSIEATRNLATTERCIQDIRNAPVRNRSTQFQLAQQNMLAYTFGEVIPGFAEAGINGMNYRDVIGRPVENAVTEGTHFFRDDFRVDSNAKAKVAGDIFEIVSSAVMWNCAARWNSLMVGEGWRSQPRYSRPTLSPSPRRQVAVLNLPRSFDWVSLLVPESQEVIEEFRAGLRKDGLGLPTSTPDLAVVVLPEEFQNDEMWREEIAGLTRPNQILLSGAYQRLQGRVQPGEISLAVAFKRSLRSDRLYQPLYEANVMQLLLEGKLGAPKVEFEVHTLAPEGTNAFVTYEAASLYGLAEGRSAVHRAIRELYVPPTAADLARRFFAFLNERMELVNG

SgrAI A57E = target: T2, SgrAI A57E (UniProt Q9F6L0 1-339, A57E); assay: as above; conditions: protein: recombinant; chain copies: 2; label: 5' 32P (S56E, A57E) or 5' fluorescein on top strand (R131A, R134A)
T2 sequence: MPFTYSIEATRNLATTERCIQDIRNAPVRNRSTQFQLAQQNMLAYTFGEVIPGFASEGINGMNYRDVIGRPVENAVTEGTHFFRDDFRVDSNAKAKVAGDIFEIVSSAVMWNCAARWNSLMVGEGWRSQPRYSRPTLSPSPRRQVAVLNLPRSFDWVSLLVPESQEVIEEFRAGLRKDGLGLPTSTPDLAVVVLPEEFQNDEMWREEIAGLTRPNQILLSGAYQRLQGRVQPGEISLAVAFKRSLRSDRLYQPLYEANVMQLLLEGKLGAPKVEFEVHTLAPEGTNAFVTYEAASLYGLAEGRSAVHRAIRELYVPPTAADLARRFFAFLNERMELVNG

SgrAI R131A = target: T3, SgrAI R131A (UniProt Q9F6L0 1-339, R131A); assay: fluorescence anisotropy; 10 mM Ca2+; 20 mM Tris-HOAc pH 8.0 (RT), 50 mM KOAc, 10 mM Ca(OAc)2 (or Mg(OAc)2), 1 mM DTT, 4 C for anisotropy and gel run; 10% glycerol for EMSA and R131A/R134A, none for wild type with 40-mers; conditions: protein: recombinant; chain copies: 2; label: 5' 32P (S56E, A57E) or 5' fluorescein on top strand (R131A, R134A)
T3 sequence: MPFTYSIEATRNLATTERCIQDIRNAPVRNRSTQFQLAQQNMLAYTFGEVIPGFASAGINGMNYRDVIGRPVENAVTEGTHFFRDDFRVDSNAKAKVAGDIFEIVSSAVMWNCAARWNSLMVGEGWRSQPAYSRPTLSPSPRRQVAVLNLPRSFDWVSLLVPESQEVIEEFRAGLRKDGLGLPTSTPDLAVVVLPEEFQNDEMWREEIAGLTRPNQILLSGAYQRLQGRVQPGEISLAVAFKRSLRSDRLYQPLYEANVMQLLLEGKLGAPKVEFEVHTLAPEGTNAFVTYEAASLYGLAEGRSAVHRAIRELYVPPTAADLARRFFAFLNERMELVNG

SgrAI R134A = target: T4, SgrAI R134A (UniProt Q9F6L0 1-339, R134A); assay: as above; conditions: protein: recombinant; chain copies: 2; label: 5' 32P (S56E, A57E) or 5' fluorescein on top strand (R131A, R134A)
T4 sequence: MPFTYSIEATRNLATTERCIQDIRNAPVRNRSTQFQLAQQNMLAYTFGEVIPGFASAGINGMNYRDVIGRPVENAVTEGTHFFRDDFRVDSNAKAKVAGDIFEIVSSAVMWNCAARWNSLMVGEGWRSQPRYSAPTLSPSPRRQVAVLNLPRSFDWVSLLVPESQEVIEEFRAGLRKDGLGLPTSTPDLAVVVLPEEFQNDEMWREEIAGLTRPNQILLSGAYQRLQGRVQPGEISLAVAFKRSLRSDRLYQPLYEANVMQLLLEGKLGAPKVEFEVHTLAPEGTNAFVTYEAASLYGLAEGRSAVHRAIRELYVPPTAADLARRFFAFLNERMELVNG

SgrAI wild type [1] = target: T5, SgrAI wild type (UniProt Q9F6L0 1-339); assay: as above; conditions: protein: recombinant, tags: none (untagged wild type; a C-terminal 6xHis version was also made), chain copies: 2
T5 sequence: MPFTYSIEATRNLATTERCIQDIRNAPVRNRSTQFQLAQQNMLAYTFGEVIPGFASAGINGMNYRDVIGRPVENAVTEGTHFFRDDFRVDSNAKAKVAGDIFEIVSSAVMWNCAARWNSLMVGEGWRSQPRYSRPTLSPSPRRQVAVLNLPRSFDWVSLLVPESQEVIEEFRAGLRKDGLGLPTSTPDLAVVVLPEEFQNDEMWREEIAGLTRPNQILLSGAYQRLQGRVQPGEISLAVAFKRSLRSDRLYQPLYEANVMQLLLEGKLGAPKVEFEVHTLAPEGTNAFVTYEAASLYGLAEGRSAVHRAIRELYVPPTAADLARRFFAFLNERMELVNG

SgrAI wild type [2] = target: T5, SgrAI wild type; assay: fluorescence anisotropy; 10 mM Mg2+; 20 mM Tris-HOAc pH 8.0 (RT), 50 mM KOAc, 10 mM Ca(OAc)2 (or Mg(OAc)2), 1 mM DTT, 4 C for anisotropy and gel run; 10% glycerol for EMSA and R131A/R134A, none for wild type with 40-mers; conditions: protein: recombinant; tags: none (untagged wild type; a C-terminal 6xHis version was also made); chain copies: 2; label: 5' Hex (Methods)
[3] = label: 5' fluorescein on top strand

B1: PC DNA (dsDNA)
DNA 1: GATGCGTGGGTCTTCACA
DNA 2: CCGGTGTGAAGACCCACGCATC
Kd (SgrAI S56E): 0.26 ± 0.02 nM | Kd (SgrAI A57E): 5 ± 2 nM | Kd (SgrAI R131A): 60 ± 20 nM | Kd (SgrAI R134A): 13 ± 6 nM

B2: 40-2A (dsDNA)
DNA 1: GATGCGTGGGTCTTCACACCGGGGGTCTGCTCAAAATGAG
DNA 2: CTCATTTTGAGCAGACCCCCGGTGTGAAGACCCACGCATC
Kd (SgrAI wild type [1]; [3]): 27 ± 2 nM

B3: 40-2B (dsDNA)
DNA 1: GATGCGTGGGTCTTCACACCGGTCGTCTGCTCAAAATGAG
DNA 2: CTCATTTTGAGCAGACGACCGGTGTGAAGACCCACGCATC
Kd (SgrAI wild type [1]; [3]): 17 ± 3 nM

B4: 40-NCTA (40-NC-TA) (dsDNA)
DNA 1: GATGCGTGGGTCTTCACTCCGGAGGTCTGCTCAAAATGAG
DNA 2: CTCATTTTGAGCAGACCTCCGGAGTGAAGACCCACGCATC
Kd (SgrAI wild type [1]; label: 5' Hex (Methods)): 0.5 ± 0.1 nM | Kd (SgrAI wild type [2]): 2.8 ± 0.5 nM

— paper PMC4399878, “Probing the Run-On Oligomer of Activated SgrAI Bound to DNA”
